The sequences below were run on Escherichia coli TOP10 (assay: shrunken log2 fold change of peptide-encoding DNA abundance (4.5 h post-induction vs induction); higher = less antimicrobial activity (less host growth inhibition)). Conditions: time post-induction: 4.5 h; library: site-saturation at positions 5, 18, 19, 20.
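Further: peptides expressed intracellularly from a pBAD plasmid library in pooled LB shake-flask culture, induced with 0.3% L-arabinose, DNA abundance read by NGS, three biological replicates, DESeq2 with apeglm shrinkage.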

Sequence | shrunken log2 fold change
RRIRRRPPRLPRPRPRPILRPRP | 0.691
RRIRLRPPRLPRPRPRPITDPRP | -0.465
RRIRHRPPRLPRPRPRPNPHPRP | -0.35
RRIRERPPRLPRPRPRPGEMPRP | -0.0373
RRIRFRPPRLPRPRPRPDPAPRP | 0.266
RRIRIRPPRLPRPRPRPAIGPRP | -0.207
RRIRFRPPRLPRPRPRPYAAPRP | -0.586
RRIRRRPPRLPRPRPRPIINPRP | -0.207
RRIRWRPPRLPRPRPRPKTEPRP | 0.111
RRIRVRPPRLPRPRPRPAQHPRP | 0.151
RRIRTRPPRLPRPRPRPPEAPRP | 0.205
RRIRSRPPRLPRPRPRPHLAPRP | -0.0617
RRIRYRPPRLPRPRPRPLNRPRP | -1.92
RRIRQRPPRLPRPRPRPEQEPRP | -0.0311
RRIRARPPRLPRPRPRPQSFPRP | -0.121
RRIRTRPPRLPRPRPRPQCPPRP | -0.125
RRIRRRPPRLPRPRPRPLVRPRP | 0.033
RRIRIRPPRLPRPRPRPKVKPRP | -0.127
RRIRQRPPRLPRPRPRPHCVPRP | -0.0218
RRIRWRPPRLPRPRPRPVLYPRP | 0.0298
RRIRSRPPRLPRPRPRPFDIPRP | -0.639
RRIRLRPPRLPRPRPRPQWYPRP | -0.426

Sequence | shrunken log2 fold change
RRIRIRPPRLPRPRPRPHWKPRP | -0.0691
RRIRERPPRLPRPRPRPIYWPRP | -0.0719
RRIRCRPPRLPRPRPRPPIQPRP | 0.369
RRIRHRPPRLPRPRPRPQVQPRP | 0.0789
RRIRVRPPRLPRPRPRPSLDPRP | -0.0324
RRIRYRPPRLPRPRPRPAGAPRP | 0.421
RRIRQRPPRLPRPRPRPEMSPRP | 0.161
RRIRNRPPRLPRPRPRPSYNPRP | -0.974
RRIRMRPPRLPRPRPRPHDTPRP | 0.048
RRIRERPPRLPRPRPRPKNTPRP | -0.439
RRIRIRPPRLPRPRPRPKVQPRP | -0.491
RRIRERPPRLPRPRPRPTNSPRP | -0.782
RRIRNRPPRLPRPRPRPSRMPRP | -0.454
RRIRFRPPRLPRPRPRPLCIPRP | -0.571
RRIRNRPPRLPRPRPRPVPKPRP | 0.883
RRIRTRPPRLPRPRPRPHFVPRP | -0.239
RRIRYRPPRLPRPRPRPAISPRP | -0.149
RRIRKRPPRLPRPRPRPAPTPRP | 1.01
RRIRRRPPRLPRPRPRPAMHPRP | 0.422
RRIRFRPPRLPRPRPRPQLWPRP | 0.338
RRIRGRPPRLPRPRPRPQLYPRP | 0.415
RRIRPRPPRLPRPRPRPNVYPRP | -0.177

Sequence | shrunken log2 fold change
RRIRARPPRLPRPRPRPYLFPRP | -0.494
RRIRMRPPRLPRPRPRPAVDPRP | 0.154
RRIRKRPPRLPRPRPRPKWRPRP | 0.887
RRIRPRPPRLPRPRPRPGGEPRP | 0.601
RRIRHRPPRLPRPRPRPNPQPRP | -0.00216
RRIRARPPRLPRPRPRPKIKPRP | 0.0665
RRIRHRPPRLPRPRPRPKSVPRP | -0.0127
RRIRGRPPRLPRPRPRPGSDPRP | 1.06
RRIRCRPPRLPRPRPRPAKGPRP | -0.179
RRIRRRPPRLPRPRPRPDYLPRP | 0.152
RRIRDRPPRLPRPRPRPNLHPRP | -0.0379
RRIRIRPPRLPRPRPRPEWWPRP | -0.0654
RRIRGRPPRLPRPRPRPTATPRP | 3.4
RRIRVRPPRLPRPRPRPCSWPRP | -0.109
RRIRMRPPRLPRPRPRPINGPRP | 0.0854
RRIRYRPPRLPRPRPRPIAPPRP | -0.0464
RRIRMRPPRLPRPRPRPHNIPRP | -0.0272
RRIRARPPRLPRPRPRPLLHPRP | 0.264
RRIRSRPPRLPRPRPRPQKFPRP | -0.14
RRIRKRPPRLPRPRPRPIFYPRP | -0.0532
RRIRRRPPRLPRPRPRPNGCPRP | 0.00793
RRIRIRPPRLPRPRPRPSSKPRP | -0.599

Sequence | shrunken log2 fold change
RRIRARPPRLPRPRPRPYREPRP | -0.0268
RRIRVRPPRLPRPRPRPMHAPRP | -0.00559
RRIRKRPPRLPRPRPRPKCHPRP | 0.182
RRIRFRPPRLPRPRPRPYVSPRP | -0.438
RRIRMRPPRLPRPRPRPYCTPRP | -0.00702
RRIRKRPPRLPRPRPRPFIGPRP | -0.0147
RRIRMRPPRLPRPRPRPKHTPRP | 1.93
RRIRIRPPRLPRPRPRPCTTPRP | -0.543
RRIRLRPPRLPRPRPRPSALPRP | -0.0136
RRIRRRPPRLPRPRPRPGMKPRP | -0.133
RRIRNRPPRLPRPRPRPAWNPRP | -0.0495
RRIRRRPPRLPRPRPRPLRDPRP | 1.05
RRIRYRPPRLPRPRPRPGHSPRP | -0.13
RRIRIRPPRLPRPRPRPYPIPRP | -0.139
RRIRLRPPRLPRPRPRPDHNPRP | -0.00288
RRIRLRPPRLPRPRPRPFFMPRP | -0.369
RRIRCRPPRLPRPRPRPHAEPRP | 0.315
RRIRDRPPRLPRPRPRPDAQPRP | 1.21
RRIRERPPRLPRPRPRPLGVPRP | -0.171
RRIRPRPPRLPRPRPRPLNSPRP | -0.262
RRIRNRPPRLPRPRPRPNSWPRP | -0.3
RRIRCRPPRLPRPRPRPPWDPRP | 0.526

Sequence | shrunken log2 fold change
RRIRIRPPRLPRPRPRPRPCPRP | -0.0531
RRIRMRPPRLPRPRPRPKQHPRP | 0.675
RRIRGRPPRLPRPRPRPFPNPRP | 0.26
RRIRTRPPRLPRPRPRPYKEPRP | -0.228
RRIRGRPPRLPRPRPRPDNWPRP | 0.347
RRIRTRPPRLPRPRPRPMLWPRP | 0.143
RRIRCRPPRLPRPRPRPKIGPRP | 0.0398
RRIRGRPPRLPRPRPRPLQQPRP | 0.28
RRIRWRPPRLPRPRPRPGRMPRP | 0.000663
RRIRARPPRLPRPRPRPNLYPRP | -0.345
RRIRKRPPRLPRPRPRPTQNPRP | 1.07
RRIRGRPPRLPRPRPRPNKHPRP | 0.124
RRIRERPPRLPRPRPRPPKFPRP | -0.0978
RRIRHRPPRLPRPRPRPYIFPRP | -0.446
RRIRARPPRLPRPRPRPKVRPRP | 0.047
RRIRARPPRLPRPRPRPLVHPRP | -0.139
RRIRSRPPRLPRPRPRPPGIPRP | 0.157
RRIRRRPPRLPRPRPRPAFWPRP | 0.547
RRIRYRPPRLPRPRPRPGITPRP | -0.444
RRIRLRPPRLPRPRPRPMVLPRP | -0.239
RRIRLRPPRLPRPRPRPGQHPRP | -0.0142
